Measured values taken from US20250295796A1, “CELL PENETRATING POLYPEPTIDES (CPPS) AND THEIR USE IN HUMAN THERAPY” (RDP PHARMA AG, priority 2021, published 2025).

What was measured:
PANC1 = test: Propidium iodide monolayer assay, PANC1; type: cell-based, human; conditions: PANC1, four days
Experimental: (§1) Monolayer Assay Propidium Iodid (PI). Cells were harvested from exponential phase cultures, counted and depending on the cell line 3.000 to 20.000 cells were plated in 96-well flat-bottom microtiter plates After a 24 h recovery period to allow cells to resume exponential growth, 10 μl of culture medium (four control wells/plate) or culture medium with the test compound were added by a liquid handling robotic system and treatment continued for four days. Compounds were applied in half-log increments at 10 concentrations in duplicate. Three independent experiments were performed. Cells were then washed with 200 μl PBS to remove dead cells followed by addition of 200 μl of a solution containing 7 μg/ml propidium iodide (PI) and 0.1% (v/v) Triton X-100. After an incubation period of 1-2 h at room temperature, fluorescence (FU) was measured using the Cytofluor 4000 microplate reader (excitation λ=530 nm, emission λ=620 nm) to quantify the amount of attached viable cells. […]
(§2) CROMOC36—in vitro activity Human pancreatic carcinoma cell lines. […] Antitumor activity was assessed after four days of CROMOC36 treatment using a propidium iodide based monolayer proliferation assay. […]

MIAPACA2 = test: Propidium iodide monolayer assay, MIAPACA2; type: cell-based, human; conditions: MIAPACA2, four days
Experimental: as §1, §2

[1] = tested on: 80 different human tumor cell lines; test: Monolayer SRB staining assay for 72 hours, 80 human tumor cell lines; type: cell-based; conditions: 55/80 cell lines, SRB 72 hours
Experimental: Cells were harvested from exponential phase cultures, and depending on the cell line 10.000 to 30.000 cells were plated in 96-well flat-bottom microtiter plates. After a 24 h recovery period to allow cells to resume exponential growth, supernatant was discarded and 100 μl of culture medium (eight control wells/plate) or culture medium with the test compound were added by a liquid handling robotic system (Microlab® Starlet, Hamilton) and treatment continued for 72 hrs. Compounds were applied at 9 concentrations eight wells/concentration). At least three independent experiments were performed. For SRB staining, cells were fixed with SRB01 for 1h at 4° C. (final concentration of TCA=10%) washed with a plate washer (Hydroflex, Tecan©) for five times with H2O; and stained with 100 μl of SRB02 at room temperature for 10 min following 4 washes in SRB03 and finally 100 μl of developer solution SRB04 for 5 minutes with shaking. Optical density was assessed using a plate-reader (Sunrise, Tecan©) at 540 nm. […]
To analyze the cytostatic activity in different tumor cell lines, the in vitro activity of CROMOC36 was analyzed in 80 different human tumor cell lines representing the mayor tumor indications by the Monolayer Sulphorhodamine B (SRB) staining assay for 72 hours.

PATU8902 = test: Propidium iodide monolayer assay, PATU8902; type: cell-based, human; conditions: PATU8902, four days
Experimental: as §1, §2

[2] = tested on: human pancreatic tumor cell lines; test: Propidium iodide based monolayer proliferation assay, panel of 13 human pancreatic tumor cell lines
Experimental: (§3) Monolayer Assay Propidium Iodid (PI). Cells were harvested from exponential phase cultures, counted and depending on the cell line 3.000 to 20.000 cells were plated in 96-well flat-bottom microtiter plates After a 24 h recovery period to allow cells to resume exponential growth, 10 μl of culture medium (four control wells/plate) or culture medium with the test compound were added by a liquid handling robotic system and treatment continued for four days. Compounds were applied in half-log increments at 10 concentrations in duplicate. Three independent experiments were performed. Cells were then washed with 200 μl PBS to remove dead cells followed by addition of 200 μl of a solution containing 7 μg/ml propidium iodide (PI) and 0.1% (v/v) Triton X-100. After an incubation period of 1-2 h at room temperature, fluorescence (FU) was measured using the Cytofluor 4000 microplate reader (excitation λ=530 nm, emission λ=620 nm) to quantify the amount of attached viable cells. Concentrations required for 50% inhibition of cell growth (IC50) were calculated by non-linear regression (log[conc. of inhibitor]versus response (% T/C)) using the analysis software GraphPad Prism®, Prism 5 for windows, version 5.01 (GraphPad Software Inc., CA).
CROMOC36—in vitro activity Human pancreatic carcinoma cell lines. The aim of this study was to investigate the antitumor activity of CROMOC36 in vitro on a panel of 13 human pancreatic tumor cell lines. Antitumor activity was assessed after four days of CROMOC36 treatment using a propidium iodide based monolayer proliferation assay. Up to four experiments were performed in each cell line, testing CROMOC36 at ten concentrations in half-log increments up to 1 μM. Taxol, an antitumor agent commonly used for the treatment of pancreatic cancer, was used as a reference compound and tested in half-log steps up to 0.3 μM.

PAXF 1657L = test: Propidium iodide monolayer assay, PAXF 1657L; type: cell-based, human; conditions: four days
Experimental: as §1, §2

[3] = tested on: lung cancer, ovarian cancer and neuroblastoma and colon cancer cells; test: SRB assay for 96 hours, cancer cells; type: cell-based; conditions: SRB 96 hours, various cancer cells; read-out: IC50 range
Experimental: Cells were harvested from exponential phase cultures, and depending on the cell line 10.000 to 30.000 cells were plated in 96-well flat-bottom microtiter plates. After a 24 h recovery period to allow cells to resume exponential growth, supernatant was discarded and 100 μl of culture medium (eight control wells/plate) or culture medium with the test compound were added by a liquid handling robotic system (Microlab® Starlet, Hamilton) and treatment continued for 72 hrs. Compounds were applied at 9 concentrations eight wells/concentration). At least three independent experiments were performed. For SRB staining, cells were fixed with SRB01 for 1h at 4° C. (final concentration of TCA=10%) washed with a plate washer (Hydroflex, Tecan©) for five times with H2O; and stained with 100 μl of SRB02 at room temperature for 10 min following 4 washes in SRB03 and finally 100 μl of developer solution SRB04 for 5 minutes with shaking. Optical density was assessed using a plate-reader (Sunrise, Tecan©) at 540 nm. Concentrations required for 50% inhibition of cell growth (IC50) were calculated by non-linear regression (log[conc. of inhibitor] versus response (% T/C)) using the analysis software GraphPad Prism®, Prism 5 for windows, version 5.01 (GraphPad Software Inc., CA). (SRB Buffers FIG. 25).

[4] = tested on: murine Lewis lung carcinoma; test: Lewis lung carcinoma (LLC) model, primary tumor growth and metastasis
Experimental: The efficacy of CROMOC36 on the Lewis lung carcinoma (LLC) model, was selected for testing the activity of CROMOC36 against primary tumor growth and metastasis formation. CROMOC36 was tested as a single agent and in combination with Cyclophosphamide (CYPP). In addition, single-agent CYPP was used as a reference compound, allowing comparison of the efficacy of CROMOC36 with a commonly used antitumor agent (summarized in FIG. 9).

[5] = tested on: Human hepatocellular carcinoma cell lines; test: Monolayer assay, human hepatocellular carcinoma cell lines, 96h treatment (geomean of three lines); type: cell-based
Experimental: as §3
CROMOC36—in vitro activity Human hepatocellular carcinoma cell lines IC50 values of CROMOC36 and Sorafenib, 96h treatment. […] The individual results for CROMOC36 are included in FIG. 24. […] The individual results for Sorafenib are included in (FIG. 24).

HEP3B = test: Monolayer assay, 96h treatment, HEP3B; type: cell-based, human
Experimental: as §3
CROMOC36—in vitro activity Human hepatocellular carcinoma cell lines IC50 values of CROMOC36 and Sorafenib, 96h treatment. […]

PAXF 546L = test: Propidium iodide monolayer assay, PAXF 546L; type: cell-based, human; conditions: four days
Experimental: as §1, §2

[6] = CROMOC36 4 mg/kg, q2dx5, single agent
[7] = combination of CROMOC36 and CYPP

B1: CROMOC36: single chain PvuII endonuclease fused at its C-terminus to DDM36, PEGylated final product used in the Examples (protein)
chain: MSHPDLNKLLELWPHIQEYQDLALKHGINDIFQDNGGKLLQVLLITGLTVLPGREGNDAVDNAGQEYELKSINIDLTKGFSTHHHMNPVIIAKYRQVPWIFAIYRGIAIEAIYRLEPKDLEFYYDKWERKWYSDGHKDINNPKIPVKYVMEHGTKIYGSGGSGGSSHPDLNKLLELWPHIQEYQDLALKHGINDIFQDNGGKLLQVLLITGLTVLPGREGNDAVDNAGQEYELKSINIDLTKGFSTHHHMNPVIIAKYRQVPWIFAIYRGIAIEAIYRLEPKDLEFYYDKWERKWYSDGHKDINNPKIPVKYVMEHGTKIYGNSGSGKKKKKGKGSGLGSGKKKDPLGSGLGSGKKKKKGKGSGLGSGKKKDPLGST
modifications: PEGylated; peptide, CROMOC36
- IC50 (PANC1): ~10 nM
- IC50 (MIAPACA2): ~10 nM
- IC50 [1]: ≤ 100 nM
- IC50 (PATU8902): 2.33 nM
- IC50 ([2]; 13 pancreatic cell lines, four days treatment, read-out: geomean IC50): 45.9 nM
- antitumor activity ([2]; on five of the cell lines tested, up to 1 μM): no activity or only marginal activity
- IC50 (PAXF 1657L): 4.73 nM
- IC50 [3]: 0.5 to 19 nM
- inhibition of total number of metastases ([4]; CROMOC36 0.4 mg/kg): 24%
- inhibition of total number of metastases ([4]; CROMOC36 4 mg/kg): 66%
- reduction of number of large metastases [4, 6]: 69.1%
- reduction of number of medium metastases [4, 6]: 49.2%
- reduction of number of small metastases [4, 6]: 61.2%
- tolerability ([4]; LLC model): No major issues
- inhibition of number of metastases ([4]; combination of CROMOC36 (4 mg/kg) and CYPP (180 mg/kg)): 81%
- final decrease in body weight (BW) compared to the start of the experiment [4, 7]: 3.7%
- reduction of number of large metastases [4, 7]: 89.2%
- reduction of number of medium metastases [4, 7]: 66.7%
- reduction of number of small metastases [4, 7]: 81.1%
- tumor growth inhibition (TI), primary tumor ([4]; simultaneous combination of CROMOC36 and CYPP): 85.6%
- tumor growth inhibition (TI), primary tumor ([4]; single agent, CROMOC36 s.c. q2dx5): 15.2%
- potency compared to Sorafenib ([5]; geomean IC50 of three HCC cell lines): over 300 fold
- IC50 ([5]; three HCC cell lines, 96h treatment): 14.1 nM
- IC50 (HEP3B): 12.2 nM
- IC50 (PAXF 546L): 6.49 nM
